Results taken from IntAct's records for PubMed 31515488.

B1: Spindle and kinetochore-associated protein 3 (Homo sapiens), Q8IX90 (parent)
chain: MDPIRSFCGKLRSLASTLDCETARLQRALDGEESDFEDYPMRILYDLHSEVQTLKDDVNILLDKARLENQEGIDFIKATKVLMEKNSMDIMKIREYFQKYGYSPRVKKNSVHEQEAINSDPELSNCENFQKTDVKDDLSDPPVASSCISEKSPRSPQLSDFGLERYIVSQVLPNPPQAVNNYKEEPVIVTPPTKQSLVKVLKTPKCALKMDDFECVTPKLEHFGISEYTMCLNEDYTMGLKNARNNKSEEAIDTESRLNDNVFATPSPIIQQLEKSDAEYTNSPLVPTFCTPGLKIPSTKNSIALVSTNYPLSKTNSSSNDLEVEDRTSLVLNSDTCFENLTDPSSPTISSYENLLRTPTPPEVTKIPEDILQLLSKYNSNLATPIAIKAVPPSKRFLKHGQNIRDVSNKEN
B2: Sperm surface protein Sp17 (Homo sapiens), Q15506 (parent)
chain: MSIPFSNTHYRIPQGFGNLLEGLTREILREQPDNIPAFAAAYFESLLEKREKTNFDPAEWGSKVEDRFYNNHAFEEQEPPEKSDPKQEESQISGKEEETSVTILDSSEEDKEKEEVAAVKIQAAFRGHIAREEAKKMKTNSLQNEEKEENK
B3: Isoform 1 of Cell division control protein 45 homolog (Homo sapiens), O75419-1 (parent)
chain: MFVSDFRKEFYEVVQSQRVLLFVASDVDALCACKILQALFQCDHVQYTLVPVSGWQELETAFLEHKEQFHYFILINCGANVDLLDILQPDEDTIFFVCDTHRPVNVVNVYNDTQIKLLIKQDDDLEVPAYEDIFRDEEEDEEHSGNDSDGSEPSEKRTRLEEEIVEQTMRRRQRREWEARRRDILFDYEQYEYHGTSSAMVMFELAWMLSKDLNDMLWWAIVGLTDQWVQDKITQMKYVTDVGVLQRHVSRHNHRNEDEENTLSVDCTRISFEYDLRLVLYQHWSLHDSLCNTSYTAARFKLWSVHGQKRLQEFLADMGLPLKQVKQKFQAMDISLKENLREMIEESANKFGMKDMRVQTFSIHFGFKHKFLASDVVFATMSLMESPEKDGSGTDHFIQALDSLSRSNLDKLYHGLELAKKQLRATQQTIASCLCTNLVISQGPFLYCSLMEGTPDVMLFSRPASLSLLSKHLLKSFVCSTKNRRCKLLPLVMAAPLSMEHGTVTVVGIPPETDSSDRKNFFGRAFEKAAESTSSRMLHNHFDLSVIELKAEDRSKFLDALISLLS
partner: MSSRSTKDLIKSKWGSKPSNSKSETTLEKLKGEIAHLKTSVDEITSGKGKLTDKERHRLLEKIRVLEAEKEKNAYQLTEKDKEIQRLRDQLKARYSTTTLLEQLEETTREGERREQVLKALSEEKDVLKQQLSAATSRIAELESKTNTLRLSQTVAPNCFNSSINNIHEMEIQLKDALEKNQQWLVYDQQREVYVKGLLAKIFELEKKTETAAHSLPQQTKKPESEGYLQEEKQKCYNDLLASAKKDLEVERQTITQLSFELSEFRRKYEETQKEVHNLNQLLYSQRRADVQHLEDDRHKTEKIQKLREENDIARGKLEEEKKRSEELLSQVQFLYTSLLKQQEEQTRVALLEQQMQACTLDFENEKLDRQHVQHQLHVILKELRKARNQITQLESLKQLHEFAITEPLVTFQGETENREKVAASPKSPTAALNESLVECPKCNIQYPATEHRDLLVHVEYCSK
B4: Tyrosine-protein phosphatase non-receptor type 9 (Homo sapiens), P43378 (parent)
chain: MEPATAPRPDMAPELTPEEEQATKQFLEEINKWTVQYNVSPLSWNVAVKFLMARKFDVLRAIELFHSYRETRRKEGIVKLKPHEEPLRSEILSGKFTILNVRDPTGASIALFTARLHHPHKSVQHVVLQALFYLLDRAVDSFETQRNGLVFIYDMCGSNYANFELDLGKKVLNLLKGAFPARLKKVLIVGAPIWFRVPYSIISLLLKDKVRERIQILKTSEVTQHLPRECLPENLGGYVKIDLATWNFQFLPQVNGHPDPFDEIILFSLPPALDWDSVHVPGPHAMTIQELVDYVNARQKQGIYEEYEDIRRENPVGTFHCSMSPGNLEKNRYGDVPCLDQTRVKLTKRSGHTQTDYINASFMDGYKQKNAYIGTQGPLENTYRDFWLMVWEQKVLVIVMTTRFEEGGRRKCGQYWPLEKDSRIRFGFLTVTNLGVENMNHYKKTTLEIHNTEERQKRQVTHFQFLSWPDYGVPSSAASLIDFLRVVRNQQSLAVSNMGARSKGQCPEPPIVVHCSAGIGRTGTFCSLDICLAQLEELGTLNVFQTVSRMRTQRAFSIQTPEQYYFCYKAILEFAEKEGMVSSGQNLLAVESQ
B5: Max-like protein X (Homo sapiens), Q9UH92 (parent)
chain: MTEPGASPEDPWVKASPVGAHAGEGRAGRARARRGAGRRGASLLSPKSPTLSVPRGCREDSSHPACAKVEYAYSDNSLDPGLFVESTRKGSVVSRANSIGSTSASSVPNTDDEDSDYHQEAYKESYKDRRRRAHTQAEQKRRDAIKRGYDDLQTIVPTCQQQDFSIGSQKLSKAIVLQKTIDYIQFLHKEKKKQEEEVSTLRKDVTALKIMKVNYEQIVKAHQDNPHEGEDQVSDQVKFNVFQGIMDSLFQSFNASISVASFQELSACVFSWIEEHCKPQTLREIVIGVLHQLKNQLY
B6: Syntenin-2 (Homo sapiens), Q9H190 (parent)
chain: MSSLYPSLEDLKVDQAIQAQVRASPKMPALPVQATAISPPPVLYPNLAELENYMGLSLSSQEVQESLLQIPEGDSTAVSGPGPGQMVAPVTGYSLGVRRAEIKPGVREIHLCKDERGKTGLRLRKVDQGLFVQLVQANTPASLVGLRFGDQLLQIDGRDCAGWSSHKAHQVVKKASGDKIVVVVRDRPFQRTVTMHKDSMGHVGFVIKKGKIVSLVKGSSAARNGLLTNHYVCEVDGQNVIGLKDKKIMEILATAGNVVTLTIIPSVIYEHMVKKLPPVLLHHTMDHSIPDA
partner: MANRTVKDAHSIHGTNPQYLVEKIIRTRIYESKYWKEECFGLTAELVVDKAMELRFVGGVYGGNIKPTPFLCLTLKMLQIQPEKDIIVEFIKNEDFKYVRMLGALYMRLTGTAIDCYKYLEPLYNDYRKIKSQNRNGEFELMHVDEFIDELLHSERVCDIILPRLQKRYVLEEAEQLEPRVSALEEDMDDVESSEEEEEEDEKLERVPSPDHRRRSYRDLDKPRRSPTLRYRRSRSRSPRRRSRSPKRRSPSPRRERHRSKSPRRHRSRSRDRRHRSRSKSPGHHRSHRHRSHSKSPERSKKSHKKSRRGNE
B7: Microtubule-associated tumor suppressor candidate 2 (Homo sapiens), Q5JR59-3 (parent)
chain: MGHCCCKPYNCLQCLDKTNESALVKEKELSIELANIRDEVAFHTAKCEKLQKEKEELERRFEDEVKRLGWQQQAELQELEERLQLQFEAEMARLQEEHGDQLLSIRCQHQEQVEDLTASHDAALLEMENNHTVAITILQDDHDHKVQELMSTHELEKKELEENFEKLRLSLQDQVDTLTFQSQSLRDRARRFEEALRKNTEEQLEIALAPYQHLEEDMKSLKQVLEMKNQQIHEQEKKILELEKLAEKNIILEEKIQVLQQQNEDLKARIDQNTVVTRQLSEENANLQEYVEKETQEKKRLSRTNEELLWKLQTGDPTSPIKLSPTSPVYRGSSSGPSSPARVSTTPR
partner: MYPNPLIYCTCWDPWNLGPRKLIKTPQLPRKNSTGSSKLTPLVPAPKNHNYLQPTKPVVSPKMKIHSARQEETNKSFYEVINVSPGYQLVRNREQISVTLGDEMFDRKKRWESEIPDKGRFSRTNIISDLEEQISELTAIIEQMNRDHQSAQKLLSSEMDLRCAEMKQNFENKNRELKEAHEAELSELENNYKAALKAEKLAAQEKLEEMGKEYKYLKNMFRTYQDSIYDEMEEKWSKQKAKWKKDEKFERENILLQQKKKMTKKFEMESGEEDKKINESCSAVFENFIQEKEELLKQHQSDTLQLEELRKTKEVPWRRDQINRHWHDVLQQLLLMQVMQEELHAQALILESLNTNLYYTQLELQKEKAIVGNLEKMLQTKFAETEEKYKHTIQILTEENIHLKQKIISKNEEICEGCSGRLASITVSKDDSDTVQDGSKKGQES

Variants of: B1
Conditions: with ska1_human SKA1, Q96BD8
ska1_human SKA1, Q96BD8, sequence (Q96BD8 whole entry): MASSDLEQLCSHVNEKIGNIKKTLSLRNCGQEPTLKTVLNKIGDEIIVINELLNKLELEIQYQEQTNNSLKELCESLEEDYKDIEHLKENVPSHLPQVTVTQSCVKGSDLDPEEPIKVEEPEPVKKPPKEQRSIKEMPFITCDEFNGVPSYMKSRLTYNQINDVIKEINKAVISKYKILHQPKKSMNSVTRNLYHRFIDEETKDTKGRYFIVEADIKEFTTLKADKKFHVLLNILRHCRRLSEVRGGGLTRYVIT

| effect of a mutation on the interaction | Variant |
| --- | --- |
| with no effect | T348M |

Variants of: B2
Conditions: with aka7g_human AKAP7, Q9P0M2
aka7g_human AKAP7, Q9P0M2, sequence (Q9P0M2 whole entry): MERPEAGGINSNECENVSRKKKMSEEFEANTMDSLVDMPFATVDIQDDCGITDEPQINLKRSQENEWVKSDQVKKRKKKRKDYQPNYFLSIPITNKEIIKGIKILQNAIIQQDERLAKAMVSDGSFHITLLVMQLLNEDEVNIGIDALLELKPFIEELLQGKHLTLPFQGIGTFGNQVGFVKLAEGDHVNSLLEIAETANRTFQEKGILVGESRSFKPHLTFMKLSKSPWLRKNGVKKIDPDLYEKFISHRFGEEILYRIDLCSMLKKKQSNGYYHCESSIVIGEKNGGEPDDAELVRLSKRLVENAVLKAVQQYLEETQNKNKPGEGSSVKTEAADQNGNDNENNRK

| effect of a mutation on the interaction | Variant |
| --- | --- |
| disrupting interaction strength | R126Q |

Variants of: B3
Conditions: with cep55_human CEP55, Q53EZ4

| effect of a mutation on the interaction | Variant |
| --- | --- |
| with no effect | G150E |

Variants of: B4
Conditions: with mal2_human MAL2, Q969L2
mal2_human MAL2, Q969L2, sequence (Q969L2 whole entry): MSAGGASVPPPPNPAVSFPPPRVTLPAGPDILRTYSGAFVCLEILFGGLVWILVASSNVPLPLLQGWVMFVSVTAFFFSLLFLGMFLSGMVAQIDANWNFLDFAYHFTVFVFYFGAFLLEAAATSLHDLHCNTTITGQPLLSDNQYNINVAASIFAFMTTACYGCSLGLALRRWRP

| effect of a mutation on the interaction | Variant |
| --- | --- |
| disrupting interaction strength | R72Q |

Variants of: B4
Conditions: with rtn3_human RTN3, O95197
rtn3_human RTN3, O95197, sequence (O95197 whole entry): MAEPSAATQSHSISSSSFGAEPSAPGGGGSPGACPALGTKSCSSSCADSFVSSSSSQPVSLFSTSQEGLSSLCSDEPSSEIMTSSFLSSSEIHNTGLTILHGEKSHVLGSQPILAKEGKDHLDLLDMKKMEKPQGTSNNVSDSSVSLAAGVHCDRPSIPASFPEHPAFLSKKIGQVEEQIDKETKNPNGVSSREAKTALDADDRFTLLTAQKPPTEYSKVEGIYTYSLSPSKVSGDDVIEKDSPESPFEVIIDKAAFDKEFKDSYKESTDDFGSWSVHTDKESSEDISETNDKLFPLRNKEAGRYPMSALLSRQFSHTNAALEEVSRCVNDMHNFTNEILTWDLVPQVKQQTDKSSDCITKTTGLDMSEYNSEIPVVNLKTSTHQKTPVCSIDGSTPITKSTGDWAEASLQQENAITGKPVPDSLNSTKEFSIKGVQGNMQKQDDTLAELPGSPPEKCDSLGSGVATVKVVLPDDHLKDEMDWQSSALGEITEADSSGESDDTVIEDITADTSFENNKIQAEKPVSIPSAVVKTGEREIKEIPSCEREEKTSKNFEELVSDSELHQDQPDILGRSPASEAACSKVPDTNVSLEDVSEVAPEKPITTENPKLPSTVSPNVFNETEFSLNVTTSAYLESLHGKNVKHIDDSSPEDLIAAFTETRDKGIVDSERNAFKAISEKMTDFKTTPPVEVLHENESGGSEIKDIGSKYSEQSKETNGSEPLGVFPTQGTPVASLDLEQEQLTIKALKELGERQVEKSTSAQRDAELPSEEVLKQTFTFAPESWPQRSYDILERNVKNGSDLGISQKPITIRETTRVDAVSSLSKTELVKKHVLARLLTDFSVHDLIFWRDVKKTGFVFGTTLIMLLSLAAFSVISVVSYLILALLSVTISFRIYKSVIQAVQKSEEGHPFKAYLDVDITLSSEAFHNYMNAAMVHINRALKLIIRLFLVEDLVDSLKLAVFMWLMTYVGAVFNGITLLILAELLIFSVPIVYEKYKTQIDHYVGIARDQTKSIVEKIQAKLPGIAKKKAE

| effect of a mutation on the interaction | Variant |
| --- | --- |
| with no effect | R72Q |

Variants of: B4
Conditions: with atrap_human AGTRAP

| effect of a mutation on the interaction | Variant |
| --- | --- |
| with no effect | R72Q |

Variants of: B5
Conditions: with gbrl2_human GABARAPL2, P60520
gbrl2_human GABARAPL2, P60520, sequence (P60520 whole entry): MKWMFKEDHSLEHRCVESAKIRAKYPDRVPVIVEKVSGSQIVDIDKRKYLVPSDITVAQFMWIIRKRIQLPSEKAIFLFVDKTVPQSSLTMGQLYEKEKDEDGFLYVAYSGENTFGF

| effect of a mutation on the interaction | Variant |
| --- | --- |
| with no effect | Q223R |

Variants of: B6
Conditions: with pr38a_human PRPF38A

| effect of a mutation on the interaction | Variant |
| --- | --- |
| disrupting interaction strength | G242R |
| disrupting interaction strength | G225R |
| with no effect | V182M |

Variants of: B7
Conditions: with facc1_human FLACC1, Q96Q35

| effect of a mutation on the interaction | Variant |
| --- | --- |
| with no effect | A89V |
